Laboratory results from patent US20150201588A1.

How the values were obtained:
human CD20 (human) [1] = molecular target: human CD20 (human) (UniProt P11836); assay: QIFIKIT-based quantitative flow cytometry on Daudi cells (human Burkitt's lymphoma line, endogenous CD20)
human CD20 (human) [2] = molecular target: human CD20 (human) (UniProt P11836); assay: QIFIKIT-based quantitative flow cytometry on Cyno iPS-EPI-1509-1_Gluc/CD20 (exogenous CD20)
human CD20 (human) [3] = molecular target: human CD20 (human) (UniProt P11836); assay: QIFIKIT-based quantitative flow cytometry on Cyno iPS-EPI-1504-1_Gluc/CD20 (exogenous CD20)
human CD20 (human) [4] = molecular target: human CD20 (human) (UniProt P11836); assay: QIFIKIT-based quantitative flow cytometry on Cyno iPS-EPI-1504-3_Gluc/CD20 (exogenous CD20)

Sequence of UniProt P11836 (P11836 whole entry): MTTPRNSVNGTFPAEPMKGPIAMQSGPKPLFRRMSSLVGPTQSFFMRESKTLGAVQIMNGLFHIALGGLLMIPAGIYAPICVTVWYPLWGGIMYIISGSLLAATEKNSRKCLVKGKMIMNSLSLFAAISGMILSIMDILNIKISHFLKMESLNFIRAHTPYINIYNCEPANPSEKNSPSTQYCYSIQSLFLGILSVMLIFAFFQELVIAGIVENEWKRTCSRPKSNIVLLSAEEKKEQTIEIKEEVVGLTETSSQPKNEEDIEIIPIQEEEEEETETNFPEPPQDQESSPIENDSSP

CD20 Surface Expression (Copies/Cell) (human CD20 (human) [1]): 388000 Copies/Cell
CD20 Surface Expression (Copies/Cell) (human CD20 (human) [2]): 1.48e+06 Copies/Cell
CD20 Surface Expression (Copies/Cell) (human CD20 (human) [3]): 1.38e+06 Copies/Cell
CD20 Surface Expression (Copies/Cell) (human CD20 (human) [4]): 1.22e+06 Copies/Cell
Substance: anti-CD20-FITC (clone 2H7) (antibody)
